Measured values from the supplement of paper PMC10065799, “High-throughput profiling of sequence recognition by tyrosine kinases and SH2 domains using bacterial peptide display” (eLife, 2023).

Legend:
FGFR3 = FGFR3 (UniProt P22607); experiment: phosphorylation enrichment, bacterial display (enrichment ratio); higher = better substrate or ligand; peptides without Tyr show the background
EPHB2 = EPHB2 (UniProt P29323); experiment: as above
Fes = Fes (UniProt P07332); experiment: as above
MERTK = MERTK (UniProt Q12866); experiment: as above
AncSZ = experiment: as above
c-Src = experiment: as above
c-Abl (mouse) = experiment: as above
Fyn = Fyn (UniProt P06241); experiment: as above
FGFR1 = FGFR1 (UniProt P11362); experiment: as above
Hck = Hck (UniProt P08631); experiment: as above
Jak2 = Jak2 (UniProt O60674); experiment: as above
EPHB1 = EPHB1 (UniProt P54762); experiment: as above
Fer (mouse) = experiment: as above
c-Src SH2 = experiment: SH2 binding enrichment of the phosphorylated peptide, bacterial display (enrichment ratio); higher = better substrate or ligand; peptides without Tyr show the background
Grb2 SH2 = Grb2 SH2 (UniProt P62993); experiment: as above
SHP2-C SH2 = experiment: as above
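Throughout, for SH2 binding enrichment of the phosphorylated peptide, bacterial display: peptide library displayed on the E. coli surface as eCPX fusions, selected cells deep-sequenced, score is each peptide's frequency after selection divided by its frequency in the input.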
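Throughout, for phosphorylation enrichment, bacterial display: 11-residue human phosphosite peptides and single-mutation variants displayed on the E. coli surface, counted by deep sequencing, each peptide's frequency after selection divided by its frequency in the unselected input library; frequency after pTyr selection over input frequency; kinase dosed for 20-30% of maximal phosphorylation in three min.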

EPHB1, sequence (P54762 whole entry, looked up): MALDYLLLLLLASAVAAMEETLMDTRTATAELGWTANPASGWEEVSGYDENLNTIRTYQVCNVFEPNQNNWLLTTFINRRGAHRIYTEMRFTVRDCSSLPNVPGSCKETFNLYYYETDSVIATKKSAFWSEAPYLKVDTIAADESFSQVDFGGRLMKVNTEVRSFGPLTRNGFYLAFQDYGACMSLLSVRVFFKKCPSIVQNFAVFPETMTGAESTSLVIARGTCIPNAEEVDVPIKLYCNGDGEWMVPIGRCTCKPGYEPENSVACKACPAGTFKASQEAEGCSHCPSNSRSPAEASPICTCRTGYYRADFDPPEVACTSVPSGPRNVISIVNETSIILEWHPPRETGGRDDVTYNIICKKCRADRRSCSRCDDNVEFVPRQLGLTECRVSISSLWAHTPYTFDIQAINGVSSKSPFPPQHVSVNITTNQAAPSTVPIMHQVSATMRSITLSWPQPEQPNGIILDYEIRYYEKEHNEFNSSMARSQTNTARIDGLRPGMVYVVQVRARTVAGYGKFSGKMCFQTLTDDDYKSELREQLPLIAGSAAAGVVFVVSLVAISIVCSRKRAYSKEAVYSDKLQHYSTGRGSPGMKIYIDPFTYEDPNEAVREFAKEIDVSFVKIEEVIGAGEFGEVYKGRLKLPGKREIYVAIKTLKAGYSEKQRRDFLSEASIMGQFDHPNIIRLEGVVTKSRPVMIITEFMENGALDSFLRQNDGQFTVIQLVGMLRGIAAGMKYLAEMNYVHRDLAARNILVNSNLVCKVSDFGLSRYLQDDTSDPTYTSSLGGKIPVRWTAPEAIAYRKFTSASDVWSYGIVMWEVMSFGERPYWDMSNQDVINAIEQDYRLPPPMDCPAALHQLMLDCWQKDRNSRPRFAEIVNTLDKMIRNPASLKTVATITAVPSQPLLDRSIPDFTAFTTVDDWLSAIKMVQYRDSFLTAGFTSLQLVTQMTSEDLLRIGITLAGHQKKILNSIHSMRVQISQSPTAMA
Hck, sequence (P08631 whole entry, looked up): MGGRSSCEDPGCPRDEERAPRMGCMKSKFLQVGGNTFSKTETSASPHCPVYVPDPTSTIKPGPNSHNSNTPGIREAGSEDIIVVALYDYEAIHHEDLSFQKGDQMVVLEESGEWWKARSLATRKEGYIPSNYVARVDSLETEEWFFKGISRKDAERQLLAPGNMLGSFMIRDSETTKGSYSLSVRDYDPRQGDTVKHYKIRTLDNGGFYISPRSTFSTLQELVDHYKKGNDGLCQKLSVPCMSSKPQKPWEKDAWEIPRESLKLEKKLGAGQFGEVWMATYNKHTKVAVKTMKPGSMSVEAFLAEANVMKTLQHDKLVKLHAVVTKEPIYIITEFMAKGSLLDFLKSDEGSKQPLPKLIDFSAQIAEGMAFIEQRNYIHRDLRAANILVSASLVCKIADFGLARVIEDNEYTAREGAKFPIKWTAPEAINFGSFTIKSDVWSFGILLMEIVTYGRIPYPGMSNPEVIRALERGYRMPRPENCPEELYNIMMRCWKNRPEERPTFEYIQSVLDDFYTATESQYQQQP
Fes, sequence (P07332 whole entry, looked up): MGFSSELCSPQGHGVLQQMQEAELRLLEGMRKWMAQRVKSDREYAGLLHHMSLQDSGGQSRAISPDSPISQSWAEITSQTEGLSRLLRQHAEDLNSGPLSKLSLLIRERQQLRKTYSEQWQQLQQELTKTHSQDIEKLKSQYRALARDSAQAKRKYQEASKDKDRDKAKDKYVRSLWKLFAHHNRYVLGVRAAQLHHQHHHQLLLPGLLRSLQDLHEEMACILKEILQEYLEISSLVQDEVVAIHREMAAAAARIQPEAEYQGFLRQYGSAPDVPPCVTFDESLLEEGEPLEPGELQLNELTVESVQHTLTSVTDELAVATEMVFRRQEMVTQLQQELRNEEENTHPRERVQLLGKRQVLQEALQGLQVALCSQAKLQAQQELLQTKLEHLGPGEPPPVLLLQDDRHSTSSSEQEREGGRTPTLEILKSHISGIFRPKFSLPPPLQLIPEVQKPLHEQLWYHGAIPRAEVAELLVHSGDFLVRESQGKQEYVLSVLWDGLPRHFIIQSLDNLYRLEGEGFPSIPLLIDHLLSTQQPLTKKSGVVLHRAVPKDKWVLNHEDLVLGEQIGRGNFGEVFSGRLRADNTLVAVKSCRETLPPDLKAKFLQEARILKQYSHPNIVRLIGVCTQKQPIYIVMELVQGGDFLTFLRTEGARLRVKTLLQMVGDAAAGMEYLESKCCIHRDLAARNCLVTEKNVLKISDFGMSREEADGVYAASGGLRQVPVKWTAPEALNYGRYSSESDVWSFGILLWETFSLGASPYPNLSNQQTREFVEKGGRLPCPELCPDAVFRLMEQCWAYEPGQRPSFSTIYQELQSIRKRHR
Fyn, sequence (P06241 whole entry, looked up): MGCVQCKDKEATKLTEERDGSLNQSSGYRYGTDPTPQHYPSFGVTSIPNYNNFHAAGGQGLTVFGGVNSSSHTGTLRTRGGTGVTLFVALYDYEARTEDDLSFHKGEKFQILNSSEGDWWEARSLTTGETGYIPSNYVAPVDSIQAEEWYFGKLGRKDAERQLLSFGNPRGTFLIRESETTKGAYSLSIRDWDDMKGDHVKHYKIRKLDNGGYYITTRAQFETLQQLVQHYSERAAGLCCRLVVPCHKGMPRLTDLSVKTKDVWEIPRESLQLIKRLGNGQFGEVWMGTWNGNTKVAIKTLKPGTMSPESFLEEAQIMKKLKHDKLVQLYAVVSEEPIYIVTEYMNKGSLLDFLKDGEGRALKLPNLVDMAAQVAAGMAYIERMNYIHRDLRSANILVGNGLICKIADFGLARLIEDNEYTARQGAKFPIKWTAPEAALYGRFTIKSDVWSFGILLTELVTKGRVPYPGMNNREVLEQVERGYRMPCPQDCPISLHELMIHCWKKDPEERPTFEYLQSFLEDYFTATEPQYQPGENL
MERTK, sequence (Q12866 whole entry, looked up): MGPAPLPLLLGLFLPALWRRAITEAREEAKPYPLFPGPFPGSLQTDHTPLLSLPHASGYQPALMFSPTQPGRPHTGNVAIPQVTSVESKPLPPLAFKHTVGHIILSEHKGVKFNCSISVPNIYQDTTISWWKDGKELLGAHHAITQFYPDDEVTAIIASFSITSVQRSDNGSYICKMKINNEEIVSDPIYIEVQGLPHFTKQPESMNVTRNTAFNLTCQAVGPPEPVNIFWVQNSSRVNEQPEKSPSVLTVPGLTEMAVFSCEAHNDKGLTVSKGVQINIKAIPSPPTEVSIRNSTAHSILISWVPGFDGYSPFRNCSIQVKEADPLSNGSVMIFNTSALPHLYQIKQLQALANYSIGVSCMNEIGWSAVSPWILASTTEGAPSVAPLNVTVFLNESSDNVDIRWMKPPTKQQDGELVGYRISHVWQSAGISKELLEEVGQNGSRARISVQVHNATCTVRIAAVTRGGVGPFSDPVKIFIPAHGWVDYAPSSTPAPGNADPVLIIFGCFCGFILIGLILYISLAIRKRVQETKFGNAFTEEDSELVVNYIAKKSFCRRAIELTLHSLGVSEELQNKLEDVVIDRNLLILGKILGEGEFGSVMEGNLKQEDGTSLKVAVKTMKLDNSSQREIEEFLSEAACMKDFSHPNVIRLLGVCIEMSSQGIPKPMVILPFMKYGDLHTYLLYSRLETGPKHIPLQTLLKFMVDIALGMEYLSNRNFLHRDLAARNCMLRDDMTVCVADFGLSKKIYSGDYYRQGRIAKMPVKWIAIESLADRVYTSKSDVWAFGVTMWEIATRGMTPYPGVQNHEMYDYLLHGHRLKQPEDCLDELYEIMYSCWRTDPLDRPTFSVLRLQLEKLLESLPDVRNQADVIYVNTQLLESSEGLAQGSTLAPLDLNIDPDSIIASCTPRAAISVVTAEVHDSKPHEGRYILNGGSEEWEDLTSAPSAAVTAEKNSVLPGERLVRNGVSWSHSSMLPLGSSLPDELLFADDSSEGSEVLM
EPHB2, sequence (P29323 whole entry, looked up): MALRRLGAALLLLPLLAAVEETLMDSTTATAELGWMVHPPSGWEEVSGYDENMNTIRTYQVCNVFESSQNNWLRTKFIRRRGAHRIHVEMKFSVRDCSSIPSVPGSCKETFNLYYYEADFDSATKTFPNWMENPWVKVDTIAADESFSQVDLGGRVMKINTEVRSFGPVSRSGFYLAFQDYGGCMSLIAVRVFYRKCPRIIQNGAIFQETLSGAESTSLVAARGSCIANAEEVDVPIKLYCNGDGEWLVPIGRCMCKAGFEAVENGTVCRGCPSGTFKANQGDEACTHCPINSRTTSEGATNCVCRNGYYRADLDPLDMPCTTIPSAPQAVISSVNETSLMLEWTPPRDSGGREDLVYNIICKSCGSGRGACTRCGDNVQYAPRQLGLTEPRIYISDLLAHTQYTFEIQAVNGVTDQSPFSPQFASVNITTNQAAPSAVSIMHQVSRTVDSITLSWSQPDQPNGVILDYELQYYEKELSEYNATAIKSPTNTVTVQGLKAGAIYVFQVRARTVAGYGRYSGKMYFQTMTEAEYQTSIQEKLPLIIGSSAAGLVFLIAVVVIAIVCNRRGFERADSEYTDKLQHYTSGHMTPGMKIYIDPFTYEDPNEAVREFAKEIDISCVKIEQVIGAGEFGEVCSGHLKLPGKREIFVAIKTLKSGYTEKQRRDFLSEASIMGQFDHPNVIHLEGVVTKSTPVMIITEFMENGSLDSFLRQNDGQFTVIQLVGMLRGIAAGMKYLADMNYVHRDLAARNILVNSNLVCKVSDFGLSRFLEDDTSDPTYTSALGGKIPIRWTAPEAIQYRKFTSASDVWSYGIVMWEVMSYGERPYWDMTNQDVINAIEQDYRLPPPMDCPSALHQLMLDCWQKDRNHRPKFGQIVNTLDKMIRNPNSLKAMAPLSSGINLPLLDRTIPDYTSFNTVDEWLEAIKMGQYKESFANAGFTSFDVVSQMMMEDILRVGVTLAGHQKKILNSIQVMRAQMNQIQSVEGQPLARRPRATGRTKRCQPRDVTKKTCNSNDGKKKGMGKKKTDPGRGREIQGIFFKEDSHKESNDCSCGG

| Sequence | SH2 binding enrichment (c-Src SH2) | SH2 binding enrichment (Grb2 SH2) | SH2 binding enrichment (SHP2-C SH2) | phosphorylation enrichment (FGFR3) | phosphorylation enrichment (EPHB2) | phosphorylation enrichment (Fes) | phosphorylation enrichment (MERTK) | phosphorylation enrichment (AncSZ) | phosphorylation enrichment (c-Src) | phosphorylation enrichment (c-Abl (mouse)) | phosphorylation enrichment (Fyn) | phosphorylation enrichment (FGFR1) | phosphorylation enrichment (Hck) | phosphorylation enrichment (Jak2) | phosphorylation enrichment (EPHB1) | phosphorylation enrichment (Fer (mouse)) |
| --- | --- | --- | --- | --- | --- | --- | --- | --- | --- | --- | --- | --- | --- | --- | --- | --- |
| ISKKRYAGLLF [POLD1_Y809] | 0.449 | 0.695 | 0.653 | 0.467 | 0.471 | 0.507 | 0.466 | 0.539 | 0.462 | 0.52 | 0.448 | 0.57 | 0.519 | 0.658 | 0.415 | 0.307 |
| KLSFSYGQALQ [ALDOB_Y302_R304Q] | 0.475 | 0.861 | 0.703 | 0.72 | 0.564 | 1.1 | 0.437 | 1 | 0.41 | 0.686 | 0.422 | 0.503 | 0.383 | 1.03 | 0.649 | 0.529 |
| CTTIRYNYMCN [TP53_Y234_H233R] | 3.56 | 1.48 | 1.55 | 0.544 | 0.583 | 0.81 | 0.457 | 0.787 | 0.417 | 0.491 | 0.464 | 0.475 | 0.449 | 0.674 | 0.461 | 0.479 |
| KDDEKYLDVSR [MTM1_Y260_I264S] | 0.532 | 0.794 | 0.649 | 0.655 | 0.556 | 1.09 | 0.423 | 0.951 | 0.433 | 0.824 | 0.456 | 0.473 | 0.457 | 0.973 | 0.521 | 0.442 |
| ETAENYLGYTA [HSPA9_Y181_H184Y] | 0.557 | 0.882 | 0.7 | 0.784 | 0.684 | 1.23 | 0.516 | 1.17 | 0.678 | 0.691 | 0.563 | 0.748 | 0.751 | 0.839 | 0.674 | 0.498 |
| LVTAWYIGFLC [KCNQ2_Y237] | 0.622 | 1.16 | 0.712 | 1.3 | 0.95 | 2.62 | 0.629 | 2.1 | 1.15 | 2.12 | 0.748 | 0.872 | 1.11 | 2.67 | 1.12 | 0.873 |
| QMVGMYASSSM [AVPR2_Y124_Y128S] | 0.685 | 0.869 | 0.756 | 0.435 | 0.403 | 0.645 | 0.504 | 0.647 | 0.567 | 0.807 | 0.438 | 0.477 | 0.766 | 0.635 | 0.73 | 0.472 |
| IRTIDYRFTVW [IDS_Y497_YF] | 0.528 | 0.923 | 0.868 | 0.741 | 0.614 | 1.2 | 0.402 | 1.11 | 0.39 | 0.735 | 0.423 | 0.41 | 0.489 | 1.09 | 0.629 | 0.557 |
| SSVKPYRVYCD [FGB_Y266] | 1.29 | 1.07 | 0.94 | 0.516 | 0.564 | 0.791 | 0.401 | 0.659 | 0.519 | 0.52 | 0.464 | 0.463 | 0.442 | 0.657 | 0.449 | 0.42 |
| NKVKFYIPFMN [NCR1_Y84_D87Y_YF] | 1.57 | 1.64 | 1.22 | 0.519 | 0.528 | 1.02 | 0.482 | 0.897 | 0.413 | 0.699 | 0.437 | 0.431 | 0.436 | 0.824 | 0.551 | 0.507 |
| VQEDIYDEFVV [ALDH2_Y332_E337V] | 0.495 | 0.824 | 0.822 | 0.886 | 0.827 | 1.25 | 3.17 | 1.55 | 3.57 | 1.75 | 3.96 | 0.599 | 2.81 | 1.37 | 0.676 | 5.77 |

Second part, led by results:

| SH2 binding enrichment (c-Src SH2) | SH2 binding enrichment (Grb2 SH2) | SH2 binding enrichment (SHP2-C SH2) | Sequence | phosphorylation enrichment (FGFR3) | phosphorylation enrichment (EPHB2) | phosphorylation enrichment (Fes) | phosphorylation enrichment (MERTK) | phosphorylation enrichment (AncSZ) | phosphorylation enrichment (c-Src) | phosphorylation enrichment (c-Abl (mouse)) | phosphorylation enrichment (Fyn) | phosphorylation enrichment (FGFR1) | phosphorylation enrichment (Hck) | phosphorylation enrichment (Jak2) | phosphorylation enrichment (EPHB1) | phosphorylation enrichment (Fer (mouse)) |
| --- | --- | --- | --- | --- | --- | --- | --- | --- | --- | --- | --- | --- | --- | --- | --- | --- |
| 4.31 | 1.21 | 2.06 | CTTLHYNYMCN [TP53_Y234_I232L] | 0.745 | 0.618 | 1.01 | 0.558 | 0.858 | 0.508 | 0.675 | 0.492 | 0.811 | 0.547 | 0.827 | 0.808 | 1.41 |
| 1.65 | 1.12 | 0.973 | KMMGRYEMFAR [UPB1_Y362_T359M_YF] | 0.445 | 0.393 | 0.599 | 0.393 | 0.538 | 0.34 | 0.464 | 0.368 | 0.363 | 0.402 | 0.453 | 0.327 | 0.298 |
| 0.664 | 1.04 | 1.28 | DEDEEYEFMNR [ERBB3_Y1197_YF] | 0.788 | 0.515 | 1.17 | 0.538 | 1.26 | 0.456 | 0.692 | 0.592 | 0.724 | 0.579 | 0.965 | 0.503 | 0.487 |
| 0.656 | 0.993 | 0.703 | FRVDCYKNFVA [FHL1_Y213_C209R_YF] | 0.956 | 0.68 | 1.49 | 0.496 | 1.23 | 0.502 | 0.979 | 0.566 | 0.542 | 0.511 | 1.11 | 0.783 | 0.58 |
| 0.508 | 0.864 | 0.755 | NEKNIYRVPLM [BMPR2_Y247] | 0.501 | 0.357 | 0.708 | 0.609 | 0.622 | 0.877 | 31.2 | 1.96 | 0.446 | 1.16 | 0.671 | 0.377 | 0.439 |
| 0.299 | 0.498 | 0.51 | NRKGKYFNVER [ANAPC4_Y469] | 0.451 | 0.448 | 0.575 | 0.411 | 0.478 | 0.487 | 0.631 | 0.386 | 0.473 | 0.695 | 0.379 | 0.367 | 0.351 |
